Test results taken from publication PMC13124150, “Interrogating the structure and function of the human voltage-gated proton channel (hHv1) with a fluorescent noncanonical amino acid” (eLife, 2026).

Target: the molecule itself
Experiment: SEC; SEC-cleaned No TAG hHv1 injected at several concentrations on an ENrich SEC 650 column in Buffer-H2 (50 mM Tris, 150 mM NaCl, 12 mM Anz3-12, pH 8.0); compared with a run in denaturing buffer (50 mM Tris, pH 8.0, 150 mM NaCl, 0.2% SDS); Ex/Em = 280/350 nm

B1: hHv1-Cysless (His-EK-hHv1-C107A-C249A), human voltage-gated proton channel (natural protein, UniProt Q96D96 1-273, looked up)
chain: MATWDEKAVTRRAKVAPAERMSKFLRHFTVVGDDYHAWNINYKKWENEEEEEEEEQPPPTPVSGEEGRAAAPDVAPAPGPAPRAPLDFRGMLRKLFSSHRFQVIIIALVVLDALLVLAELILDLKIIQPDKNNYAAMVFHYMSITILVFFMMEIIFKLFVFRLEFFHHKFEILDAVVVVVSFILDIVLLFQEHQFEALGLLILLRLWRVARIINGIIISVKTRSERQLLRLKQMNVQLAAKIQHLEFSASEKEQEIERLNKLLRQHGLLGEVN
notes: human voltage-gated proton channel (hHv1), full-length, with C107A and C249A (Cysless); Construct name His-EK-hHv1 in pET15-b; 'EK' between the His tag and hHv1 is probably an enterokinase site (surmised); no cleavage step is described; also called No TAG; control; source: E. coli BL21-Gold(DE3), purified (Ni-NTA in Anzergent 3-12, FSEC)
With B1 the “stoichiometry N” value was 2.
